Our source for the Kd values is publication PMC7644731.

Holding throughout (assay): double-filter binding
The subject of one data set is Mini-Ph EH. To be noted: apparent Kd, n=5; Filter binding: 60 mM KCl, 12 mM Hepes pH 7.9, 0.24 mM EDTA, 4% glycerol, 0.02 nM probe, 1 h at room temperature.
A further data set deals with Mini-PhΔSAM. To be noted: apparent Kd, n=4; Filter binding: 60 mM KCl, 12 mM Hepes pH 7.9, 0.24 mM EDTA, 4% glycerol, 0.02 nM probe, 1 h at room temperature.
In another data set the test system is Mini-Ph-ML. To be noted: apparent Kd, n=3; Filter binding: 60 mM KCl, 12 mM Hepes pH 7.9, 0.24 mM EDTA, 4% glycerol, 0.02 nM probe, 1 h at room temperature.
The next data set has as its system Mini-Ph. To be noted: apparent Kd, n=10; Filter binding: 60 mM KCl, 12 mM Hepes pH 7.9, 0.24 mM EDTA, 4% glycerol, 0.02 nM probe, 1 h at room temperature.

Regarding 150-bp DNA probe, the Kd with Mini-Ph EH turned out to be 706 nM; with Mini-PhΔSAM, 990 nM; with Mini-Ph-ML, 190 nM; in the data set with Mini-Ph it was 37 nM.
